In the DeepSol protein solubility set:

Assay: soluble on expression in E. coli; label from the status in PepcDB or PDB records

Soluble on expression in E. coli, not soluble:
MGSDKIHHHHHHMSDKTDSSQGKSEPESSENNNDKTSVDNSVKSPLTIAISKNTKILALFAIACTLAVSLVSELTKDRIKVQEQQQLLRTLHSIIEPSRYDNDIANDCIMMSAPELGSNKVKTAYIARKAGQVVAVAITSTAPQGYNGNIDFIMAINNDGSVSGVRVLKHQETPGLGDKIEIRKSDWIKSFTGKRILSEDDSRWAVTKDNGMFDQFTGATITPRAVVKGVKSTLNYFNQHKGSLIPRPNACGEALSTTKSISPISEAANEQ
MGSDKIHHHHHHMSDPAGKPCIICVAITGSLPTKENNPAVPITLAEQVESTHEAFEAGASIAHCHVRDDEGRPTSDPDRFAALKEGLERHCPGMIVQLSTGGRSGAGQARGAMLPLCPDMASLSVGSNNFPTRVYENPPDLVDWLAAEMLKYDIKPEIEAFDLSHILQAKRMAGDGRLAGTPYVQFVMGVRNAMPADRDVFDYYIHTVRRLFGEDAPWCAAGIGPSQIVLNEWAISSGGHARTGLEDNVRLDRDRLAPSNAALVGRAVELCEKYERPVATWRQARQILGLRMV
MGSDKIHHHHHHMSDQTRQPNSSSGLSQLLTGRLRSKLAAGVTHLTSGSGPTLDYSSPPGDPGLFGPDSVCWKVHADFTSMMTGGISALLLQALHPLALAGVWDHSAFRTDILGRLRRTATFIAGTTYGNRHDALALVERVKRIHLGVSGVAPDGRPYRASEPALLTWVHVAEVSSFMTAHLRYVNPLLPVAAQDQYFAETARIAEMLGASDIPRSRAGIDAYLLAMQPELVASERTRELVRILMNAPAPSASMRPAGVLMLNAGVDLLPDWAQAMLGFQRYAALRRAVTRPGVRLVAPVIRWALVNGVSKRARRRVAAGVREPE
MGSDKIHHHHHHMSDVIEQYFVKNEPYYRPVADEVKLYEAAYSVRMPMMLKGPTGCGKTRFVEYMAWKLGKPLITVACNEDMTASDLVGRFLLDAQGTRWQDGPLTTAARYGAICYLDEVVEARQDTTVVIHPLTDNRRVLPLEKKGELVGAHPDFQLVISYNPGYQSLMKDLKQSTKQRFGALDFNYPQHDIETEIVSHETGIDSAIADKLVSIAERARNLKGHGLDEGISTRMLIYAGNLIAKGVDVHAACRMALVRPITDDPDMRDALDAAVTTFF
MGSDKIHHHHHHMSDVVLNKGIVIEQLRYGHGNDVLVVDAWQLGTAEHWAIFATDSYSGSLLGRILSGDITPDQGIITGLPQRIGWVSLGQQQALLARELAKDELDYGSSVELLVLECCQGAQQLGPLLQQVGLEHLRLRGFRQLSTGETRRVMLARALAMQPQLLILDDPYAGLDCEHQESLSQLLDEVAKNCQLLLITSRQEELPECISHVALFNTEMLQSGQSIHKLSLPMSIKEWHSHPIMAQLHALSAQRSDELLALLVRQRHKVEDFDPLVEIKNGKVEYVSGLIFSGVNWRIEAGQHWQVRGPNGCGKSTLLGLILGDHPQCYSNDITLFGRPRGSGESIWEIKQRIGIVSSALHLQYRVSCSALDVLLSGFFDSIGLYHKPTKLQHDLAKEWLAILHMSELAHISFKQLEYGQQRLLLIGRALIKKPLLLILDEPYQGLDFINRTLVMRTLEMIAHHHLSQLLYVSHHREDALPSIKHFIDFVRQGDGYSVQVSHL
MGSDKIHHHHHHMSEAILNICSVSKRFGDNLANDDISLSLGKGEIVALLGENGAGKTTLMSILFGHYVPDSGKVLVEGRELPPGKPRAAIRAGIGMVHQHFSLAPNLTVLENVMAGTERLWHLRSGTSAARRKLHRICQRFGLTVEPDARVGDLSVGEQQRVEILKALYNDAHILVLDEPTAVLTNLEAERLFSTLKDMAREGLSLIFISHKLDEVMAAANRIVVLRGGRKVAERLAKETNKAELAELMVGRRVARPVREPSTPGEVVLKVADVSVSIDGVERLKSIDFSLRAGEVLGIIGVSGNGQTTLAHLLSGTLRRDKGDLLLFGEPIGDLTVDDAVRAGIGRIPEDRNKEGAIGEMAIWENAVLERLPRFSRYGLVDRPSGQAFAGQIIDAFDVRGGRPTTRTRLLSGGNMQKLILGRNLMDRPRILLAAQPARGLDEGAVAAVHERLLEARRAGTAVLLISEDLEEVMALADRIQAIVNGRLSPPIAADSASATKLGLMMAGEWNEEHEVPHAF
MGSDKIHHHHHHMSEAINHGIIKSYVDGLTTSTLLMPNLPTAEHAVALAKNYPGLFVGQHTNFLLGKPCADPCMIPSLVDEQGNFHRSSYYRQQKQVTFVYEEVRLETIAQLTRFKELTGHYPEHFDCHSIGDEVVDQVFLELAEEYGLHTTLKYSGEKEYPPQQGYFQVTHLLESGALSYIHEGVSVENFLEDDFGLLRMPESAIAEMHFDVGYLDQFVLDNSSYTTLRCKELATICDPRVRQWFEEQGIERITFGDLKK
MGSDKIHHHHHHMSEPVKGAQTVTRALSVLKHISHAHPFGIAIGELSEVSQLDRATTYRLASTLVSFGLVERDAARKYRLGVEAMQLGLSAMRSAPIVGQLQPAMRRLARRTEDTVFLVVRSGDYGHCIHCEEGTYPVKAMVLQVGGMRLLGVGSAGMTLLSMLSDVEVLALYQRHQEEFSRGPSFAKLKRMVGEARERGYADTVDLVTEGVSGVGMRFELSAGSHAAVSVAAIRSRMTPERKKWIAEIIAEELQVSGFTPAYSRVS
MGSDKIHHHHHHMSFTVATIAREPWPVLNRFLTWHLDQGAERIILYLDDPDDPSLPRLRGEPRIDARPCTPAFWRQIGLKQDARFTRRQRGVLSQAYHELEDGWLLVLDADEMMWMSGRTIPEALATLPDEAQSLRVRSAEQVRLSDGSEAFRTPIERAAVDRVYGDLSGLLRARFGFTYHPEGKSFHRAGQRLNMKLHWAQDANGDRTPGPVWGRAERAYLMHYAAPDYARWRAKVNWRAGASGFVLPVKEQITEIAESNDPEAGYQDLYRTLHGLTDAQALALEAEGGLLRDGPKVLDLGG
MGSDKIHHHHHHMSGFLTFDFENQAVRAFEHDGQEWFVAVDVCRCLRLENSRQALTRLSDDEKRSCNLNTLTDSKGIIFNAINDSDGIRAGNPNATIVNEPGLYRLIFTSTKPEAERLKRFVFHEVLPALRHTGCFAPEPVIDWEIAREQLSLVREARLAHGKEAAAALWRELGLPMPKDETSDKERRQAQGLMKYVYDFIDECMVFDQKAEVTGKEVYQRYQQWSATNNAPYIMNSSFGRFLIRAGIVKRHVSTGSRYIGVRLKHHIQITDQSS
MGSDKIHHHHHHMSGKPAARVTDPTTCPVPGHGSNPIVQGSPDVVFDGLPAARQGDASACGSPMISAVSSTVLINGLPAVTLGSIGAHGNVVIGGSGTVLIGDVFTPAPRAPALPLNRNSVPCSGRFQLIDHETGKPVAGRRVRVWSSGGWNAFDTTDADGMTSWIERPTAEILYIDLVQRCDA
MGSDKIHHHHHHMSGYKVFIVDDEADIALILKLQLEDAGYRTMRARDGIEALDALERESFDLVLLDIRMPRMDGIEVLERIRDRWPDLVVIMMTAHGSEDIAVEAMKKGAVDYISKPFSSDDMKKRVERAIQFNRTRLENERLQRVLDEERRKMGAILRGMADLLVAVDREGRIITINRAAEERFGIAADGVQNQPVELLLKTDIPGERLPCRVVLATGDPCLDVTYAVQAGGGMIPVLSSATPLKGAGGEMMGCVEIIRDISTLKALEREREDFVSMLSHDLKTPITAVVGSIDLVREGRIGPVNAEQRSYLDSAMESCAEMVDMIDTLLDVHRFEAGRMVMAARLEDLGPLMARTLGRFDSVARRAGIALVLTLPDYPLALSLDRNQFARLMGNLIANAIKFTQEGGEIEVSARLLNDPAELVGRIPRESYPDVPLPPLNPHLLITVRDTGVGIPADSLVSIFDRFVQARNRRLGKSTGTGLGLAFCRKVMDAHHGYIWAESVEGEGSSFNMLFPLTNEAYAATGG
MGSDKIHHHHHHMSHKFKFLTLPHRSGEVANVFIHGYSAGHDMEDRCALRKCIPSSLHNCINIFAFWPSGHWAKFDDWSSKSILAAGRLSFLAGAGLAVADRAFHFNTSRKRATAMGKTLLSQLETYLLKHHPYVSKVNLVGHSLGGRVVIHALLDLQGKPADDSLVIGDVLLMAAASTLSGDEAKTIGERINGKLYNAWSSDDKVLLFNLGENSAGRQEIDHCQNVPMHGFGHTDYWPRLDRVLRASGFHGYRGGLPSAIQPELVIKNPDPVVADHLLYDLLELTSDGIRSQVVKHLRSSSWTKLETEHPLYLLTKEFQLLGGHCLVNLARGKGLKYVQILLMLAEHYGLVSELHDCAQVIEMEALLISKCFQSSFGEEHVLASMQDIVLQIHGLSEKEYFEQVDALAASLTVTSYISTPETPAPVYRKTGSAQTGDSKELVLASGSFLTSFSTLMPTERMKAAVINLKSAVKPGYSALIPAVAAVFYARLKLNNEGLL
MGSDKIHHHHHHMSHLPHLIAKLENHAEWVKRLVLVGQKSWHTPLQKGGWSPAEVIHHFHRWDDFARNYRFIPFLAGRATFTAGAHAKFNEHSEREVRDGLGKEAIIVQCLKSRYALIETVEKLREEAWEQTLTIGDHDLSIHTYLQGVIEHDRHHREQIEQFFSLEQQGKLPMVNITERCGEELPMNLLLLADPEQAMIERYLSGGLGFLAEVEGTPVGVIVLKDKGHGLFEVMNIAVAEQEQGKGYGKLLLLHGIHVALKRGADRIEIGTGNSSIGQLALYQRCGFSITAVDKDFFTKHYHEPIVEQGIRCEHMIRLAQDLK
MGSDKIHHHHHHMSICIKDQIQNMNIVIGCTVGCAYCYARNNVKRWHMIDDFAAPEFFPGKLKMMEKKRPQNFLLTGMSDLSGWKPEWRNVVFAKIRENPQHQFLFLTKRPDLLDFDTDLENAWFGVTVTRKAELWRIDALRKNVRAKHYHVTFEPLFDDPGTVDLSGINWIVVGTMTGAQSRKIHTEPEWAWSLADQAHKLGIPVFMKEDIVPIIGDENMIQEMPEEFNKVLEVQKSWKK
MGSDKIHHHHHHMSIQVKALSKRIDNREILRGITFTWQPGRIVGLVGRNGVGKTTLFRTMADHYLADEGELVIEGQSTLQQPYCRQKLFYIDTQRHFFGGRRLRQIITTYALAYDDFDQSQLTALLAAEHLSTKSYYQRLSKGQQMLFQILLALASHVPYIILDEPFDGLDIIVRERIVAYMVEEVAEHGVSFLISSHNLDELDGLCDQVLFLQHHELVADYDLESLRATARKFQLVFADKHIPAVVKEHGQLIKVYGRVLEVYFADYTPTIETALQQTQPLMMAVQPLTITDVFRVKLGDRQAVWGGV
MGSDKIHHHHHHMSISIYAFYNNKGGVGKTTLCSNAATLYAEKNPKTQVLVIDMCPQANISQFLLGGGKKGYQINQRLQSSATRKNIVGFIDWLLKGNSNFRKPNTSYQVPVYRYNPNISENLYLIAGDSFLESLSLALNYAVINPANIKAWSEYMTAIRRLCEYEYNSETYKDMVVFIDCNPSFSMYTQMALVSSDKIVVPMMADFSSLEGIKSLFMLLFGKYPSAALKQYADGIITFNNQVEHFQLKLPLIYEFVFNNYTIKDGVATAFDSIRTELIDFCYEQFNKFPSLFAPCQHTPTSSKEWENYYFSGIKDFHTSGKVSSSLGIPMSMLPKESKYIMPDGSVVRLPISNYSQALEEIELFVDKIH
